This is an account of results in publication PMC3202562, “A Broad Set of Different Llama Antibodies Specific for a 16 kDa Heat Shock Protein of Mycobacterium tuberculosis” (PLoS ONE, 2011).

For experiment [1], the target named is T1, purified recombinant 16 kDa heat shock protein of M. tuberculosis (Mycobacterium tuberculosis, UniProt P9WMK1).
T1 construct: also called recombinant 16 kDa protein; recombinant 16 kDa hsp; source: E. coli BL21-AI, purified (urea lysis, Ni-NTA); not shown: AVI-tag, C-terminal, kept; His6, C-terminal, kept
The experiment is described as follows: far-Western, overlay or dot blot. The note with it: both partners purified.

For experiment [2], the target named is 16 kDa heat shock protein of M. tuberculosis, in M. tuberculosis lysate (Mycobacterium tuberculosis (lysates of …, UniProt P9WMK1)).
Experiment [3] addresses T1, purified recombinant 16 kDa heat shock ….

Where two headings read alike, the source gives them in different places.

T1 sequence (P9WMK1 whole entry): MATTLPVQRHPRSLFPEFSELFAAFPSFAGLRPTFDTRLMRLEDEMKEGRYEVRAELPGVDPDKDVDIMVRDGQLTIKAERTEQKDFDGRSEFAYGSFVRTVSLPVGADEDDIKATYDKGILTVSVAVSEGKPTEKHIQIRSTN
Sequence of 16 kDa heat shock protein of M. tuberculosis, in M. tuberculosis lysate (Mycobacterium tuberculosis (P9WMK1 whole entry): as above

B1: VHH A-28 (VHH)
VHH: QVQLQDSGGGLVQAGDSLRLSCTYSGRSFSNHAMGWFRQAPGKERGFVAAIGWINGGTYYADSVKGRFIISRDNDKNTLYLQMNNLKPEDTAVYYCAARNALRSISFNLSEYAYWGQGTQVTVSS
notes: source: E. coli BL21-AI, purified (urea lysis, Ni-NTA)
For the molecule B1, in experiment [1], the binding result is given as “binds”.

B2: A-93 (VHH)
VHH: QVQLQESGGGLVQAGGSLRLSCAASRRLYSSYSLGWFRQAPGKEREFVAALGWIANGTYYADSAKGRFTISRGNAMVFLQMNSLKSEDTAVYYCAARLGSVREAPREYTYWGQGTQVTVSS
Turning to B2, the binding result in experiment [2] and in experiment [3] was “binds” in each case.
